Where “and” joins values, the source holds several entries; their conditions need not be identical. Identical values can stand only once.
Assays:
[1] = molecular target: 868-Z11 single chain TCR (WT), displayed on yeast; test: flow cytometry on cells; yeast displaying the 868-Z11 scTCR stained with PE-conjugated SL9/HLA-A2 tetramer, 256 pM to 32.8 nM, 30 min at 4°C, PBS-BSA; MFI fit to a 1:1 binding isotherm; apparent KD; in duplicate
[2] = molecular target: 868-Z11 G104βP/T96βK single chain TCR; test: SPR; steady state; scTCR immobilised on a CM5 Series S chip by amine coupling (about 2000 RU); peptide/MHC injected at 5 μL/min at concentrations between 50 µM and 2 nM; 25 °C; HBS-EP (10 mM HEPES, 150 mM NaCl, 3 mM EDTA, 0.005% surfactant P-20, pH 7.4); 1:1 binding model; each cell one of three titrations of its group
[3] = molecular target: 868-Z11 A94αH/T96βK single chain TCR; test: as above
[4] = molecular target: 868-Z11 T96βK single chain TCR; test: as above
[5] = molecular target: 868-Z11 A94αH single chain TCR, soluble recombinant; test: SPR; single cycle kinetics; scTCR immobilised on CM5 chip by amine coupling (100-300 RU); peptide/MHC injected at 0.6-48 nM, 100 μL/min; 25°C; HBS-EP pH 7.4; 1:1 model
[6] = molecular target: 868-Z11 G104βP single chain TCR, soluble recombinant; test: as above
[7] = molecular target: 868-Z11 G104βP/T96βK single chain TCR, soluble recombinant
[8] = molecular target: 868-Z11 A94αH/T96βK single chain TCR, soluble recombinant; test: SPR; steady state; scTCR immobilised on CM5 chip by amine coupling (about 2000 RU); peptide/MHC injected at 50 µM to 2 nM, 5 μL/min; 25°C; HBS-EP pH 7.4; 1:1 model
[9] = molecular target: 868-Z11 G104βP/T96βK single chain TCR, soluble recombinant; test: as above
[10] = molecular target: 868-Z11 T96βK single chain TCR, soluble recombinant; test: as above

Row | Substance | Kd [2] | Kd [3] | Kd [4] | further results
1 | PE-conjugated SL9/HLA-A2 tetramer (from UniProt P61769 21-119) (peptide-MHC) | – | – | – | Kd [1]: 0.0017 µM
2 | SL9 T8V escape variant presented by HLA-A*02:01 (from UniProt P61769 21-119) (peptide-MHC) | 1.4 µM and 3.5 µM and 3.2 µM | 22.2 µM and 24.3 µM and 40.7 µM | 1.6 µM and 1.9 µM and 2.7 µM | –
3 | SL9 V6I escape variant presented by HLA-A*02:01 (from UniProt P61769 21-119) (peptide-MHC) | 0.7 µM and 1.5 µM and 1.6 µM | 9.5 µM and 12.4 µM and 17.9 µM | 0.8 µM and 1.1 µM and 1.2 µM | –
4 | SL9 V6I/T8V escape variant presented by HLA-A*02:01 (from UniProt P61769 21-119) (peptide-MHC) | 0.8 µM and 1.8 µM and 1.5 µM | 9.9 µM and 13.7 µM and 17.9 µM | 0.8 µM and 1.1 µM and 1 µM | –
5 | SL9 Y3F escape variant presented by HLA-A*02:01 (from UniProt P61769 21-119) (peptide-MHC) | 34 µM and 39.8 µM and 52.3 µM | 264 µM and 274 µM and 403 µM | 38.6 µM and 39.3 µM and 58.2 µM | –
6 | SL9 Y3F/T8V escape variant presented by HLA-A*02:01 (from UniProt P61769 21-119) (peptide-MHC) | 49.1 µM and 62.5 µM | 324 µM and 314 µM and 475 µM | 46 µM and 44.6 µM and 59 µM | –
7 | SL9 Y3F/V6I escape variant presented by HLA-A*02:01 (from UniProt P61769 21-119) (peptide-MHC) | 12.5 µM and 18.5 µM and 22.5 µM | 102 µM and 105 µM and 167 µM | 9.6 µM and 10.2 µM and 15.7 µM | –
8 | SL9 Y3F/V6I/T8V escape variant presented by HLA-A*02:01 (from UniProt P61769 21-119) (peptide-MHC) | 20.4 µM and 28.1 µM and 26.3 µM | 154 µM and 177 µM and 203 µM | 17.3 µM and 23.8 µM and 20.2 µM | –
9 | SL9/HLA-A2 (HIV SL9 epitope presented by HLA-A*02:01), soluble (from UniProt P61769 21-119) (peptide-MHC) | – | – | – | Kd [5]: 0.0052 µM; Kd [6]: 0.0003 µM; peptide EC50 of IL-2 release (ELISA): CD8+ Jurkat 76 cells with the full length 868-Z11 G104βP/T96βK TCR co-cultured with T2 cells pulsed with WT SL9 peptide, 0.1 nM-100 µM [7]: 0.01 µM; Kd [8]: 33 µM; Kd [9]: 2.2 µM; Kd [10]: 2.5 µM
